The record followed here is PMC4251045.

Assay [1] addresses Rim1-C-terminal 6xHis (yeast). Nature of the assay: cross-linking; DSS 2.5 mM, 3 uM Rim1 tetramer, 25 mM HEPES, 100 mM NaCl, 10% glycerol, pH 7.5, room temperature 40 min; products resolved on 5-15% SDS-PAGE; bands digested and analysed by nanoLC-LTQ-Orbitrap MS (XLPM, StavroX).
Assay [2] deals with Rim1-C-terminal 6xHis (yeast). Nature of the assay: cross-linking; SDA (NHS-diazirine) 50 uM, 3 uM Rim1 tetramer, 25 mM HEPES, 100 mM NaCl, 10% glycerol, pH 7.5, NHS step 25 °C 30 min, then UV 365 nm; SDS-PAGE; bands analysed by nanoLC-LTQ-Orbitrap MS (XLPM).

In the case of Rim1-C-terminal 6xHis (natural protein), the stoichiometry N in assay [1] and in assay [2] was 4 each time.
